Measured values: US11124558B2, “Use of tetranectin and peptide agonists to treat inflammatory diseases” (The Feinstein Institutes for Medical Research, priority 2017, dated 2021)
Read-outs that look alike come from different tables or passages of the source.

Assays:
[1] = molecular target: apolipoprotein A1 (Apo-A1); settings: ref [58]; read-out: Kd of TN binding to Apo-A1; cited from earlier work
[2] = test system: GRO/CXCL1 and ENA-78/CXCL5 secretion, HuPBMCs; assay: Cytokine/chemokine secretion by HuPBMCs (Cytokine Antibody Arrays); assay type: cell-based; settings: primary human monocytes / HuPBMCs, TN 20 μg/ml, 16 h
Method: Human blood was purchased from the Long Island Blood Bank, and HuPBMCs were isolated by density gradient centrifugation through Ficoll, and stimulated with recombinant TN (20 μg/ml) expressed in HEK293 or E. coli for 16 h. The extracellular levels of cytokines and chemokines were determined by Cytokine Antibody Arrays.
In light of the protective roles of these neutrophil-attracting chemokines, CXCL1/KC [67,68] and CXCL5/ENA-78 [69,70] in LSI, it is important to determine whether TN could modulate leukocyte infiltration to facilitate potential pathogen elimination during sepsis.

[3] = test system: HMGB1 release, primary murine peritoneal macrophages; assay: LPS- or SAA-induced HMGB1 release in primary murine peritoneal macrophages (Western blotting); assay type: cell-based; settings: for inhibition of LPS- or SAA-induced HMGB1 release: primary murine peritoneal macrophages, 16 h, serum-free OPTI-MEM I, TN from HEK293 or E. coli
Method: A, B, Primary murine peritoneal macrophages. C, Primary human peripheral blood mononuclear cells (HuPBMCs). Murine macrophages or human monocytes (HuPBMCs) were cultured in serum-free OPTI-MEM I medium, and stimulated with LPS or SAA for 16 h at the indicated concentrations. The extracellular HMGB1 levels were determined by Western blotting, and expressed as % of maximal stimulation by LPS or SAA alone.
Immune-modulating properties of tetranectin: To explore TN's immune-modulating properties, its effects on the LPS- and SAA-induced HMGB1 release were examined in murine macrophage and human monocyte cultures. […] This inhibition was TN-dose-dependent, evident at concentrations as low as 5.0 μg/ml, and became more dramatic (with 50-100% inhibition) at higher doses.
Effects of TN on the LPS-, IFN-γ-, or SAA-induced HMGB1 release. To elucidate the regulatory mechanisms of HMGB1 release, we will examine the impact of TN and its peptide agonists on the HMGB1 release induced by a wide array of inflammatory stimuli including the crude LPS [75], IFN-γ [76] and SAA [77], in macrophage and monocyte cultures. Primary peritoneal macrophages will be isolated from the Balb/C mice (both male and female, 7-8 weeks, 20-25 g) at 2-3 days after intraperitoneal injection of 2 ml thioglycollate broth (4%, Difco, Detroit, Mich.) as previously described. Human peripheral blood mononuclear cells (HuPBMCs) will be isolated from human blood obtained from the Long Island Blood Bank (NY) by density gradient centrifugation through Ficoll as previously described. At 80-90% confluence, macrophage/monocyte cultures will be stimulated with the crude LPS (Cat. No. L3012, Sigma-Aldrich), IFN-γ (Cat. No. 14777, Sigma-Aldrich), or SAA (Cat. No. 300-13, PeproTech) at different concentrations and for various time periods. The extracellular levels of HMGB1 in the culture medium will be determined by Western blotting as previously described.

HMGB1 release = assay: LPS/SAA-induced HMGB1 release, summary statement (cells not specified); assay type: cell-based
plasminogen (PLMG) = plasminogen (PLMG) (Homo sapiens, UniProt P00747); settings: cited from earlier work
plasminogen (PLMG), sequence (P00747 20-810 limits assumed): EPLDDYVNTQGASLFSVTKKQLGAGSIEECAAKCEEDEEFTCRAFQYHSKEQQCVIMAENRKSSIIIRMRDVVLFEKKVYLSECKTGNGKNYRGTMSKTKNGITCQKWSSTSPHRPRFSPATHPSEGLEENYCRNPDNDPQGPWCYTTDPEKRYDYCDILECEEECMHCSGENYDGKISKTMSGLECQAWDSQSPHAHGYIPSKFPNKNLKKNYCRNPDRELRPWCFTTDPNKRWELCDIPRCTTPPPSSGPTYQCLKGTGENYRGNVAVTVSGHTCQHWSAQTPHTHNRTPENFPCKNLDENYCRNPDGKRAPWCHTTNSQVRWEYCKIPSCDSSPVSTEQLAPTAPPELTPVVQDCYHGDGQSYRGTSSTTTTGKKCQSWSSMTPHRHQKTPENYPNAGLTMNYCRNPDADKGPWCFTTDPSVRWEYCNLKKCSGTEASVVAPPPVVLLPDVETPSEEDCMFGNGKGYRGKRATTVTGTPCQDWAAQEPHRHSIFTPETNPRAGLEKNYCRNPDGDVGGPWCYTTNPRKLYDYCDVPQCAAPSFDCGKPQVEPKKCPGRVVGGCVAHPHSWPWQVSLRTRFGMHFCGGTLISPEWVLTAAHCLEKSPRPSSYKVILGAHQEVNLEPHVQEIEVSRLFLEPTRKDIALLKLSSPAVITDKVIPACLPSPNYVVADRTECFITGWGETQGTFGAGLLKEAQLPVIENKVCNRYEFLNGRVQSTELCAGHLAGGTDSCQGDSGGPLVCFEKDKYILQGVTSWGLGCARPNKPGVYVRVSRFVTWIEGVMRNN

HMGB1 = molecular target: T1, HMGB1 (Homo sapiens, UniProt P09429); assay: BIAcore surface plasmon resonance assay of HMGB1-TN interaction; settings: TN immobilized on CM5 chip, HMGB1 as analyte; read-out: estimated (apparent) Kd of HMGB1 binding to TN
T1 sequence (P09429 1-215): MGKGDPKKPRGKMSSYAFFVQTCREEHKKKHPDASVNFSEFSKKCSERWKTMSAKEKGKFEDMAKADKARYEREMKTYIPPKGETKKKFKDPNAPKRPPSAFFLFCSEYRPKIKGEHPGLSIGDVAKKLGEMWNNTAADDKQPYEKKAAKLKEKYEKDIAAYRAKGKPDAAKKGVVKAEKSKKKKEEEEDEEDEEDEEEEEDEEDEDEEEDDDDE
Method: FIG. 11: BIAcore Surface Plasmon Resonance Assay of HMGB1-TN Interaction. Recombinant TN was immobilized on the sensor chip, and HMGB1 was applied as an analyte at different concentrations. The response units were recorded over time, and the binding affinity was estimated as the apparent Kd.
Effects of TN supplementation on the sepsis-induced coagulation. This laboratory has recently discovered that some pharmacological agents (e.g., tanshinones) inhibit HMGB1 release by facilitating its internalization into macrophage cytoplasmic vesicles via the clathrin- and caveolin-dependent endocytosis. Similarly, some endogenous proteins (e.g., haptoglobin) can also capture HMGB1 to enhance its cellular uptake through a CD163 receptor-mediated endocytosis. Thus it is determined whether TN can capture HMGB1 and enhance its internalization into macrophages/monocytes. The TN-HMGB1 interaction is investigated by employing the surface plasmon resonance (SPR) technology as previously described. Briefly, the highly purified recombinant TN or HMGB1 is covalently immobilized on a CM5 chip, and HMGB1 or TN is applied to the chip at various concentrations, before the SPR response will be monitored using a BIAcore system as previously described.

B1: tetranectin (protein, listed as Homo sapiens)
chain: EPPTQKPKKIVNAKKDVVNTKMFEELKSRLDTLAQEVALLKEQQALQTVCLKGTKVHMKCFLAFTQTKTFHEASEDCISRGGTLGTPQTGSENDALYEYLRQSVGNEAEIWLGLNDMAAEGTWVDMTGARIAYKNWETEITAQPDGGKTENCAVLSGAANGKWFDKRCRDQLPYICQFGIV
- Kd [1]: 13 nM
- release of neutrophil-attracting chemokines (CXCL1/GRO-α/KC and CXCL5/ENA-78) [2]: induced the release
- release of neutrophil-attracting chemokines (CXCL1/GRO-α/KC and CXCL5/ENA-78) ([2]; listed as Recombinant TN): specifically induced
- release of neutrophil-attracting chemokines (CXCL1/GRO-α/KC and CXCL5/ENA-78) ([2]; listed as recombinant TN): specifically stimulated
- effect on LPS- or SAA-induced release of most other cytokines (G-CSF, IL-6, IL-12) and chemokines (KC, LIX, MIP-1α, MIP-2, RANTES) ([3]; data not shown, cells not specified): did not inhibit
- lowest concentration at which inhibition of HMGB1 release was evident ([3]; murine macrophages): 5.0 µg/mL
- inhibition of LPS- or SAA-induced HMGB1 release [3]: dose-dependently inhibited
- inhibition of LPS- or SAA-induced HMGB1 release ([3]; listed as recombinant human TN protein): capable of inhibiting
- attenuation of LPS/SAA-induced HMGB1 release (HMGB1 release): dose-dependently attenuated
- Kd (plasminogen (PLMG); ref [57], read-out: Kd of calcium-sensitive TN-PLMG interaction): 500 nM
- Kd (plasminogen (PLMG); ref [74], read-out: Kd of TN-PLMG interaction): 500 nM
- Kd (HMGB1): 570 nM
